Results on one substance are retold here after doi:10.1101/2024.11.25.625210.

This experiment deals with Tom1 (S. cerevisiae HECT ubiquitin ligase), full-length, wild type (S. cerevisiae) (UniProt Q03280). Put plainly: cryo-EM structure.
Sequence of UniProt Q03280 (Q03280 whole entry): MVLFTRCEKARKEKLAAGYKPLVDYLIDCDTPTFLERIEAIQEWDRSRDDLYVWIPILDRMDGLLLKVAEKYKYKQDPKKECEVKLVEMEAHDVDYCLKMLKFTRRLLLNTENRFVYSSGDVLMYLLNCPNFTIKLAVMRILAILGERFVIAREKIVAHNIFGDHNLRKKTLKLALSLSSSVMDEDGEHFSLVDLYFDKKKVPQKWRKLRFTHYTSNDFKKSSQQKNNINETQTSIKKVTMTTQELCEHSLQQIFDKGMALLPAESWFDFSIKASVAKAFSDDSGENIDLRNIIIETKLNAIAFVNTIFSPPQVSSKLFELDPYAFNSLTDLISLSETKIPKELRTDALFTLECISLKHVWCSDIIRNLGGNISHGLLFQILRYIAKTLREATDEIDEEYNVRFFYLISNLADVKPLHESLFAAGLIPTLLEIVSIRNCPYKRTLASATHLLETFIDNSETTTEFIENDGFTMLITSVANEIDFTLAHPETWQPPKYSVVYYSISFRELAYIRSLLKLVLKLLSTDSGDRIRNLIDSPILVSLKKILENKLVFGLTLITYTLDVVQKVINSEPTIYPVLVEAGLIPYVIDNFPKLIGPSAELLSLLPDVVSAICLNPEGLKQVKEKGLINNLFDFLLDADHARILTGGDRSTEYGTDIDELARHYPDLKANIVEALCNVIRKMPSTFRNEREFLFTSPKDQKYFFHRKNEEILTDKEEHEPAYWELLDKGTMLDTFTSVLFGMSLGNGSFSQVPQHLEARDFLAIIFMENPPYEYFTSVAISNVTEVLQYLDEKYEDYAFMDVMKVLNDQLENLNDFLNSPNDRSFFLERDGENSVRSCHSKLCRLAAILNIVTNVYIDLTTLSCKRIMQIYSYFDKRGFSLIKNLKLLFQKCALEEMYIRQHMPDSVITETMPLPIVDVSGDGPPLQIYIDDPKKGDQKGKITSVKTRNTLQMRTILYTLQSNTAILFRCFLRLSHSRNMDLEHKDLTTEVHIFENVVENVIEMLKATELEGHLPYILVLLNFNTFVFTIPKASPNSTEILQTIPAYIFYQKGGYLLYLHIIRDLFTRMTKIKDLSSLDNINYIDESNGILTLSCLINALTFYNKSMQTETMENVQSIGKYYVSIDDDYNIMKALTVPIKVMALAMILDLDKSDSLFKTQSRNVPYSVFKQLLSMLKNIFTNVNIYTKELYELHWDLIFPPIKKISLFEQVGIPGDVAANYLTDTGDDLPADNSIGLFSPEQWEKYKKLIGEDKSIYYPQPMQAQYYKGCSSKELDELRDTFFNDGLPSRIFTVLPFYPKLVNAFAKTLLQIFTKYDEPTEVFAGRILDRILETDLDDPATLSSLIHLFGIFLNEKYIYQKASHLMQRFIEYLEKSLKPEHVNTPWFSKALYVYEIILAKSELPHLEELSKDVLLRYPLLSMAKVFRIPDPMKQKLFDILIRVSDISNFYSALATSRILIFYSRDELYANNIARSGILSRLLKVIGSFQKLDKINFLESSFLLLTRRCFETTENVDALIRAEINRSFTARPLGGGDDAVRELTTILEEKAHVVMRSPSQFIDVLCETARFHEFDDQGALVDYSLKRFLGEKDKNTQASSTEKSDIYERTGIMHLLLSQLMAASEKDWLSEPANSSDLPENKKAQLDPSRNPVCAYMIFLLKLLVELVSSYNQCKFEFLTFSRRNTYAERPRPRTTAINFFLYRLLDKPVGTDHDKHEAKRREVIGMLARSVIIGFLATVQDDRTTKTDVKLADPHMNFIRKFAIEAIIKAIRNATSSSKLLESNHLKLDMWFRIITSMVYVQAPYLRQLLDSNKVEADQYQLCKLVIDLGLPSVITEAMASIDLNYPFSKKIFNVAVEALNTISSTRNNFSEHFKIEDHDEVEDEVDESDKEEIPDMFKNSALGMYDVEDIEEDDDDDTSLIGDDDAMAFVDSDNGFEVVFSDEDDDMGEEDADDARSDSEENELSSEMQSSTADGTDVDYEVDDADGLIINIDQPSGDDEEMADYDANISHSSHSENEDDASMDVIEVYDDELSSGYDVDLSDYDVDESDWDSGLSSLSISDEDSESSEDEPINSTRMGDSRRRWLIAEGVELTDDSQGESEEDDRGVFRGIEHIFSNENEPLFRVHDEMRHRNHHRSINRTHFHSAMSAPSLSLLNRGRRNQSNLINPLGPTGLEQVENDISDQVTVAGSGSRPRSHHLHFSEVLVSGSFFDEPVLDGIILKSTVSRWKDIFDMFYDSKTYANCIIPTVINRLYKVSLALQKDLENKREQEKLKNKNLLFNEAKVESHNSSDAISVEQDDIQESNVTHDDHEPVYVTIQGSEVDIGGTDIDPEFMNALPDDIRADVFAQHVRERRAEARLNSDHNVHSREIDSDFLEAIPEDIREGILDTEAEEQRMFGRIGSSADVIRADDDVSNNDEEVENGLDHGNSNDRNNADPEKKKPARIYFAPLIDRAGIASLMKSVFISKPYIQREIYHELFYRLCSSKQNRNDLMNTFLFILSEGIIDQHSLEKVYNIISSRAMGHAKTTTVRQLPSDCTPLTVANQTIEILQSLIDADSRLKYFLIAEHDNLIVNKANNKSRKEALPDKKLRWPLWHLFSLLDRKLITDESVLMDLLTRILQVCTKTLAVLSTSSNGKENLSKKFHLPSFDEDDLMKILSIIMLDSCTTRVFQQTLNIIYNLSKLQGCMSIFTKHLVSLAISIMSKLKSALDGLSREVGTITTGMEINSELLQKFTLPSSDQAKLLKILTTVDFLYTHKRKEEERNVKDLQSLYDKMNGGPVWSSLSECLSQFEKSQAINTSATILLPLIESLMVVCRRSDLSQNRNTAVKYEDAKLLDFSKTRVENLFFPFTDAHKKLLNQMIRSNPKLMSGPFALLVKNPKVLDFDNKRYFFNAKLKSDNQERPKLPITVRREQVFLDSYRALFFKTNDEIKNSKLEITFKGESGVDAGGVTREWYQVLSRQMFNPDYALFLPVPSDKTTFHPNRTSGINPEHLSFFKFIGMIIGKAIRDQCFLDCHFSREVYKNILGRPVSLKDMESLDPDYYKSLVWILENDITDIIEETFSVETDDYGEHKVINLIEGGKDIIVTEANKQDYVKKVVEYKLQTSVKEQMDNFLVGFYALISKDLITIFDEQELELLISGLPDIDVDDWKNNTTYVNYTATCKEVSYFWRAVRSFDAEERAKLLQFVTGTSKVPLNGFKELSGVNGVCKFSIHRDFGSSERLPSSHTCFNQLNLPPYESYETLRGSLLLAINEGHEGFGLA

As for “ubiquitin (from UniProt P0CG48 1-76) (natural protein)”, the stoichiometry N (usually the number of molecules, sites or subunits per partner or assembly) amounted to 4.
